Test results from patent publication US20190382504A1.

Tests used:
Assay in all cases: FACS, peptide-pulsed T2 cells
[1] = molecular target: ESO157 A8 peptide (…)/HLA-A*02:01 complex on T2 cells (human)
[2] = molecular target: ESO157 A7 peptide (…)/HLA-A*02:01 complex on T2 cells (human)
[3] = molecular target: HLA-A*02:01 on T2 cells without peptide loading (human)
[4] = molecular target: ESO157 A5 peptide (…)/HLA-A*02:01 complex on T2 cells (human)
[5] = molecular target: ESO157 A1 peptide (…)/HLA-A*02:01 complex on T2 cells (human)
[6] = molecular target: ESO157 A4 peptide (…)/HLA-A*02:01 complex on T2 cells (human)
[7] = molecular target: ESO157 A3 peptide (…)/HLA-A*02:01 complex on T2 cells (human)
[8] = molecular target: ESO157 wild type peptide (…)/HLA-A*02:01 complex on cells (human)
[9] = molecular target: ESO157 A6 peptide (…)/HLA-A*02:01 complex on T2 cells (human)

Substance | MFI [1] | MFI [2] | MFI [3] | MFI [4] | MFI [5] | MFI [6] | MFI [7] | MFI [8] | MFI [9]
KO7 helper phage | 94 | 84 | 97 | 101 | 92 | 97 | 100 | 136 | 91
antibody BB7.2 | 75000 | 72900 | 53100 | 59000 | 67000 | 60300 | 66100 | 76000 | 55800
